Experimental data from patent US20140193430A1.

How the values were obtained:
[1] = target: recombinant KIR2DL1 protein (entire extracellular domain, produced in E. coli, refolded) (human) (UniProt P43626); test: BIAcore, direct binding of second Ab to KIR2DL1 chip (field of first Ab 1-6F1)
[2] = target: recombinant KIR2DL3 protein (entire extracellular domain, produced in E. coli, refolded) (human) (UniProt P43628); test: BIAcore, direct binding of second Ab to KIR2DL3 chip (field of first Ab 1-6F5)
[3] = target: recombinant KIR2DL1 protein (entire extracellular domain, produced in E. coli, refolded) (human) (UniProt P43626); test: BIAcore competition on KIR2DL1 chip; first Ab DF200, second Ab (competitor) EB6
[4] = target: recombinant KIR2DL1 protein (entire extracellular domain, produced in E. coli, refolded) (human) (UniProt P43626); test: BIAcore, direct binding of second Ab to KIR2DL1 chip (field of first Ab 1-7F9)
[5] = target: recombinant KIR2DL3 protein (entire extracellular domain, produced in E. coli, refolded) (human) (UniProt P43628); test: BIAcore, direct binding of second Ab to KIR2DL3 chip (field of first Ab 1-7F9)
[6] = target: recombinant KIR2DL3 protein (entire extracellular domain, produced in E. coli, refolded) (human) (UniProt P43628); test: BIAcore competition on KIR2DL3 chip; first Ab DF200, second Ab (competitor) 1-6F1
immobilized KIR2DS1 [7] = target: immobilized KIR2DS1 (UniProt Q14954); test: BIAcore competition on KIR2DS1 chip; first Ab DF200, second Ab (competitor) 1-7F9
[8] = target: recombinant KIR2DL3 protein (entire extracellular domain, produced in E. coli, refolded) (human) (UniProt P43628); test: BIAcore, second Ab on KIR2DL3 chip with first Ab (competitor) 1-6F5 bound
[9] = target: recombinant KIR2DL1 protein (entire extracellular domain, produced in E. coli, refolded) (human) (UniProt P43626); test: BIAcore, second Ab on KIR2DL1 chip with first Ab (competitor) 1-6F5 bound
[10] = target: recombinant KIR2DL3 protein (entire extracellular domain, produced in E. coli, refolded) (human) (UniProt P43628); test: BIAcore competition on KIR2DL3 chip; first Ab DF200, second Ab (competitor) Pan2D
[11] = target: recombinant KIR2DL1 protein (entire extracellular domain, produced in E. coli, refolded) (human) (UniProt P43626); test: BIAcore competition on KIR2DL1 chip; first Ab DF200, second Ab (competitor) 1-7F9
[12] = target: recombinant KIR2DL1 protein (entire extracellular domain, produced in E. coli, refolded) (human) (UniProt P43626); test: BIAcore, second Ab on KIR2DL1 chip with first Ab (competitor) 1-6F1 bound
[13] = target: recombinant KIR2DL1 protein (entire extracellular domain, produced in E. coli, refolded) (human) (UniProt P43626); test: BIAcore, second Ab on KIR2DL1 chip with first Ab (competitor) 1-7F9 bound
[14] = target: recombinant KIR2DL1 protein (entire extracellular domain, produced in E. coli, refolded) (human) (UniProt P43626); test: BIAcore competition on KIR2DL1 chip; first Ab DF200, second Ab (competitor) 1-4F1
[15] = target: recombinant KIR2DL1 protein (entire extracellular domain, produced in E. coli, refolded) (human) (UniProt P43626); test: BIAcore competition on KIR2DL1 chip; first Ab DF200, second Ab (competitor) 1-6F5
[16] = target: recombinant KIR2DL3 protein (entire extracellular domain, produced in E. coli, refolded) (human) (UniProt P43628); test: BIAcore competition on KIR2DL3 chip; first Ab DF200, second Ab (competitor) 1-7F9
[17] = target: recombinant KIR2DL3 protein (entire extracellular domain, produced in E. coli, refolded) (human) (UniProt P43628); test: BIAcore, second Ab on KIR2DL3 chip with first Ab (competitor) 1-6F1 bound
[18] = target: recombinant KIR2DL3 protein (entire extracellular domain, produced in E. coli, refolded) (human) (UniProt P43628); test: BIAcore competition on KIR2DL3 chip; first Ab DF200, second Ab (competitor) 1-4F1
[19] = target: recombinant KIR2DL3 protein (entire extracellular domain, produced in E. coli, refolded) (human) (UniProt P43628); test: BIAcore competition on KIR2DL3 chip; first Ab DF200, second Ab (competitor) 1-6F5
[20] = target: recombinant KIR2DL3 protein (entire extracellular domain, produced in E. coli, refolded) (human) (UniProt P43628); test: BIAcore, direct binding of second Ab to KIR2DL3 chip (field of first Ab 1-4F1)
immobilized KIR2DS1 [21] = target: immobilized KIR2DS1 (UniProt Q14954); test: BIAcore, second Ab on KIR2DS1 chip with first Ab (competitor) 1-7F9 bound
[22] = target: KIR2DL1(R131W)-hFc (human) (UniProt P43626); test: ELISA, KIR2DL1(R131W)-hFc captured via goat anti-human antibodies, mAb titrated, peroxidase anti-mouse, A450 [panel DF200]
immobilized KIR2DS1 [23] = target: immobilized KIR2DS1 (UniProt Q14954); test: BIAcore competition on KIR2DS1 chip; first Ab DF200, second Ab (competitor) Pan2D
[24] = target: recombinant KIR2DL3 protein (entire extracellular domain, produced in E. coli, refolded) (human) (UniProt P43628); test: BIAcore, second Ab on KIR2DL3 chip with first Ab (competitor) 1-7F9 bound
[25] = target: recombinant KIR2DL1 protein (entire extracellular domain, produced in E. coli, refolded) (human) (UniProt P43626); test: BIAcore competition on KIR2DL1 chip; first Ab DF200, second Ab (competitor) 1-6F1
immobilized KIR2DS1 [26] = target: immobilized KIR2DS1 (UniProt Q14954); test: BIAcore, direct binding of second Ab to KIR2DS1 chip (field of first Ab 1-7F9)
[27] = target: recombinant KIR2DL3 protein (entire extracellular domain, produced in E. coli, refolded) (human) (UniProt P43628); test: BIAcore competition on KIR2DL3 chip; first Ab DF200, second Ab (competitor) gl183
[28] = target: recombinant KIR2DL3 protein (entire extracellular domain, produced in E. coli, refolded) (human) (UniProt P43628); test: BIAcore, second Ab on KIR2DL3 chip with first Ab (competitor) 1-4F1 bound
[29] = target: recombinant KIR2DL1 protein (entire extracellular domain, produced in E. coli, refolded) (human) (UniProt P43626); test: BIAcore competition on KIR2DL1 chip; first Ab DF200, second Ab (competitor) Pan2D
[30] = target: KIR2DL1-hFc (complete extra-cellular domain of KIR2DL1, amino acids H1-H224, wild-type, fused to human Fc) (human) (UniProt P43626); test: ELISA, KIR2DL1-hFc captured via goat anti-human antibodies, mAb titrated, peroxidase anti-mouse, A450 [panel DF200]
[31] = target: recombinant KIR2DL3 protein (entire extracellular domain, produced in E. coli, refolded) (human) (UniProt P43628); test: BIAcore, direct binding of second Ab to KIR2DL3 chip (field of first Ab 1-6F1)
[32] = target: recombinant KIR2DL1 protein (entire extracellular domain, produced in E. coli, refolded) (human) (UniProt P43626); test: BIAcore, direct binding of second Ab to KIR2DL1 chip (field of first Ab 1-6F5)
immobilized KIR2DS1 [33] = target: immobilized KIR2DS1 (UniProt Q14954); test: BIAcore competition on KIR2DS1 chip; first Ab DF200, second Ab (competitor) 1-4F1
[34] = target: recombinant KIR2DL3 protein (entire extracellular domain, produced in E. coli, refolded) (human) (UniProt P43628); test: BIAcore competition on KIR2DL3 chip; first Ab gl183, second Ab (competitor) Pan2D
[35] = target: recombinant KIR2DL3 protein (entire extracellular domain, produced in E. coli, refolded) (human) (UniProt P43628); test: BIAcore competition on KIR2DL3 chip; first Ab gl183, second Ab (competitor) 1-7F9
[36] = target: recombinant KIR2DL3 protein (entire extracellular domain, produced in E. coli, refolded) (human) (UniProt P43628); test: BIAcore competition on KIR2DL3 chip; first Ab gl183, second Ab (competitor) 1-4F1
[37] = target: recombinant KIR2DL3 protein (entire extracellular domain, produced in E. coli, refolded) (human) (UniProt P43628); test: BIAcore competition on KIR2DL3 chip; first Ab gl183, second Ab (competitor) 1-6F1
[38] = target: recombinant KIR2DL3 protein (entire extracellular domain, produced in E. coli, refolded) (human) (UniProt P43628); test: BIAcore competition on KIR2DL3 chip; first Ab gl183, second Ab (competitor) DF200

Chain of immobilized KIR2DS1 (Q14954 22-245 limits assumed): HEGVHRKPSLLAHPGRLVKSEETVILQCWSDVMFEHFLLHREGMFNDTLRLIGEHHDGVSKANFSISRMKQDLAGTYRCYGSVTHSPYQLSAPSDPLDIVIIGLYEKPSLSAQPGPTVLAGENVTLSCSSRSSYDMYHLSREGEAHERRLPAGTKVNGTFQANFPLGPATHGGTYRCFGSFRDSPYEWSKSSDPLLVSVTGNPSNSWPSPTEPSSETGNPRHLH
Chain of recombinant KIR2DL3 protein (entire extracellular domain, produced in E. coli, refolded) (human) (P43628 22-245): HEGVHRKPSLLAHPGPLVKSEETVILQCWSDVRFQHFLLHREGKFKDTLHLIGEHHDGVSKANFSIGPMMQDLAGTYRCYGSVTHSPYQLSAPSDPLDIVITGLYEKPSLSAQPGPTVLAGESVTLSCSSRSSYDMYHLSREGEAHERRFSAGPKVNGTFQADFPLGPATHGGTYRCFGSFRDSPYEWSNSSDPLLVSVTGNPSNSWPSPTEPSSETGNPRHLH
Chain of recombinant KIR2DL1 protein (entire extracellular domain, produced in E. coli, refolded) (human) (P43626 22-245): as the sequence (Q14954 22-245 limits assumed) above, with K70T, L90V, P114L, T154P, N163D, R182H, E216K counted along it
Chain of KIR2DL1(R131W)-hFc (human) (P43626 22-245 R152W): as the sequence (Q14954 22-245 limits assumed) above, with K70T, L90V, P114L, R131W, T154P, N163D, R182H, E216K counted along it
Chain of KIR2DL1-hFc (complete extra-cellular domain of KIR2DL1, amino acids H1-H224, wild-type, fused to human Fc) (human) (P43626 22-245): as the sequence (Q14954 22-245 limits assumed) above, with K70T, L90V, P114L, T154P, N163D, R182H, E216K counted along it

## monoclonal antibody DF200 produced by hybridoma DF200
[1]
  RU, direct binding (RU1): 350 RU
[2]
  RU, direct binding (RU1): 800 RU
[3]
  % inhibition of second Ab binding by first Ab: 90%
[4]
  RU, direct binding (RU1): 600 RU
[5]
  RU, direct binding (RU1): 770 RU
[6]
  % inhibition of second Ab binding by first Ab: 16%
Immobilized KIR2DS1 [7]
  % inhibition of second Ab binding by first Ab: 15%
[8]
  RU, binding with first Ab present (RU2): 760 RU
[9]
  RU, binding with first Ab present (RU2): 290 RU
[10]
  % inhibition of second Ab binding by first Ab: 75%
[11]
  % inhibition of second Ab binding by first Ab: 27%
[12]
  RU, binding with first Ab present (RU2): 310 RU
[13]
  RU, binding with first Ab present (RU2): 545 RU
[14]
  % inhibition of second Ab binding by first Ab: 92%
[15]
  % inhibition of second Ab binding by first Ab: 15%
[16]
  % inhibition of second Ab binding by first Ab: 62%
[17]
  RU, binding with first Ab present (RU2): 760 RU
[18]
  % inhibition of second Ab binding by first Ab: 75%
[19]
  % inhibition of second Ab binding by first Ab: 4%
[20]
  RU, direct binding (RU1): 1140 RU
Immobilized KIR2DS1 [21]
  RU, binding with first Ab present (RU2): 1090 RU
[22]
  EC50 (read off the curve): 0.02 µM
Immobilized KIR2DS1 [23]
  % inhibition of second Ab binding by first Ab: 70%
[24]
  RU, binding with first Ab present (RU2): 450 RU
[25]
  % inhibition of second Ab binding by first Ab: 15%
Immobilized KIR2DS1 [26]
  RU, direct binding (RU1): 900 RU
[27]
  % inhibition of second Ab binding by first Ab: 20%
[28]
  RU, binding with first Ab present (RU2): 210 RU
[29]
  % inhibition of second Ab binding by first Ab: 80%
[30]
  EC50 (read off the curve): 0.02 µM
[31]
  RU, direct binding (RU1): 790 RU
[32]
  RU, direct binding (RU1): 350 RU
Immobilized KIR2DS1 [33]
  % inhibition of second Ab binding by first Ab: 87%

## GL183 (IgG1 anti KIR2DL3) (antibody)
[5]
  RU, direct binding (RU1): 800 RU
[17]
  RU, binding with first Ab present (RU2): 570 RU
[20]
  RU, direct binding (RU1): 1240 RU
[34]
  % inhibition of second Ab binding by first Ab: 40%
[35]
  % inhibition of second Ab binding by first Ab: 76%
[24]
  RU, binding with first Ab present (RU2): 200 RU
[36]
  % inhibition of second Ab binding by first Ab: 75%
[28]
  RU, binding with first Ab present (RU2): 330 RU
[31]
  RU, direct binding (RU1): 620 RU
[37]
  % inhibition of second Ab binding by first Ab: 18%
[38]
  % inhibition of second Ab binding by first Ab: 8%
